{"source": "paper PMC11251522", "key": {"Sox2 HMG (human)": {"target": "Sox2 HMG (human) (UniProt P48431)", "sequence (P48431 40-123)": "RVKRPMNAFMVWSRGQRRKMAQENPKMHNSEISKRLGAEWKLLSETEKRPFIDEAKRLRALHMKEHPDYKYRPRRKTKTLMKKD", "test": "fluorescence anisotropy", "settings": "FP at 4°C, ERα: 20 mM Tris pH 7.5 (at 25°C), 100 mM NaCl, 5% glycerol, 0.01% IGEPAL, Sox2: 10 mM Tris pH 7.5 (at 25°C), 135 mM KCl, 15 mM NaCl, 0.1 mg/mL BSA …"}, "ERα DBD-Ext (human)": {"system": "ERα DBD-Ext (human)", "test": "fluorescence anisotropy", "settings": "apparent, FP at 4°C, ERα: 20 mM Tris pH 7.5 (at 25°C), 100 mM NaCl, 5% glycerol, 0.01% IGEPAL, Sox2: 10 mM Tris pH 7.5 (at 25°C), 135 mM KCl, 15 mM NaCl, 0.1 mg/mL BSA …"}}, "data": [{"substance": "CBS dsDNA (10 bp)", "values": [{"measurement": "Kd", "setting": "Sox2 HMG (human); printed ≤1, first (high-affinity) transition, 54% of signal", "value": "< 1", "unit": "nM"}, {"measurement": "Kd", "setting": "Sox2 HMG (human); second (low-affinity) transition", "value": 420, "unit": "nM"}]}, {"substance": "ERE dsDNA (18 bp)", "values": [{"measurement": "Kd", "setting": "ERα DBD-Ext (human); Hill n 2.1", "value": 11, "unit": "nM"}]}, {"substance": "NBS dsDNA (19 bp)", "values": [{"measurement": "Kd", "setting": "Sox2 HMG (human); apparent, Hill n 0.57", "value": 29, "unit": "nM"}]}, {"substance": "XBP1 hRNA (37 nt)", "values": [{"measurement": "Kd", "setting": "ERα DBD-Ext (human); Hill n 0.91", "value": 370, "unit": "nM"}]}, {"substance": "hRNA (43 nt)", "values": [{"measurement": "Kd", "setting": "Sox2 HMG (human); apparent, Hill n 1.1", "value": 53, "unit": "nM"}]}, {"substance": "ΔERE dsDNA (15 bp, half-site)", "values": [{"measurement": "Kd", "setting": "ERα DBD-Ext (human); Hill n 1.5, about half the ligand concentration, true Kd may be lower", "value": 2.8, "unit": "nM"}]}]}
